The text below walks through data of article PMC5563082 (2017).

Positions count from the first letter of the chain named.

The Kd is the concentration at which binding is half-saturated. Read a high Kd as weaker binding.

Common to all, as to test: SPR
In general terms: In SPR one partner is held on a chip, and binding of the other changes the refractive index at the surface.

For assay [1], the target named is T1, human NL1(–A+B Asn300Gln)_(ECTO), immobilised for SPR (human, biotin on the Avitag (in vivo biotinylation by BirA)).
T1 chain: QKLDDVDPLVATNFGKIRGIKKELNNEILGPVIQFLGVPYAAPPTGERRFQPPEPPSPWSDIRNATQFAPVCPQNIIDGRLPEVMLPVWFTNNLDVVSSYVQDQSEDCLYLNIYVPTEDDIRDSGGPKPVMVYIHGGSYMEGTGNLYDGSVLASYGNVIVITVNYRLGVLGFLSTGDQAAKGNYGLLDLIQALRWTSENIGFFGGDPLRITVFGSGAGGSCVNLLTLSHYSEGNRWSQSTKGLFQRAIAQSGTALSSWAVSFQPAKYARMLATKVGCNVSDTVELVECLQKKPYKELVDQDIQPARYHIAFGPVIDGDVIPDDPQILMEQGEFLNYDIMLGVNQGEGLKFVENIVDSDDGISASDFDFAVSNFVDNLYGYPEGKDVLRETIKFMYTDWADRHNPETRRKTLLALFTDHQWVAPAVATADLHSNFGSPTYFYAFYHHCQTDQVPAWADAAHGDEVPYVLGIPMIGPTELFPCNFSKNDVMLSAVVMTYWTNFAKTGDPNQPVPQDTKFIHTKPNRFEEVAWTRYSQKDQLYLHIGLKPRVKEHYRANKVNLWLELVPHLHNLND

The target in assay [2] is T2, human NL1(–A–B)_(ECTO) Arg450Cys, immobilised for SPR (human, biotin on the Avitag (in vivo biotinylation by BirA)).
T2 chain: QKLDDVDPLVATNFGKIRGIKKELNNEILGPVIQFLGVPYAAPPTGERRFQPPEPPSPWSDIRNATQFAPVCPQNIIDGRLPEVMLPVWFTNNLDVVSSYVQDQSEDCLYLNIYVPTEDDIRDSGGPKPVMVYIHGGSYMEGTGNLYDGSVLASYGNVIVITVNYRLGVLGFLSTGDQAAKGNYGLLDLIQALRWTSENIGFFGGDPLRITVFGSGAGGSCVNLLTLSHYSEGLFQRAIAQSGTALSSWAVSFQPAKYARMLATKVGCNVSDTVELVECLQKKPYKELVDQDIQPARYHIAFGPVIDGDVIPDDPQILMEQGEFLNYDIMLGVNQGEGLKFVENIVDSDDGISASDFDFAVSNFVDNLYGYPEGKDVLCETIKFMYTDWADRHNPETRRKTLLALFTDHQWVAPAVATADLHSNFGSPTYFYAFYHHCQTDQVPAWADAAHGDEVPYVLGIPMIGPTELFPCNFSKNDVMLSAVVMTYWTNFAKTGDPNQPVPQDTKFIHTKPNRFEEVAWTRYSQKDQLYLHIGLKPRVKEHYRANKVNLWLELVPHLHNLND

Assay [3] deals with human NL3(–A)_(ECTO) Arg451Cys, immobilised for SPR (human, UniProt Q9NZ94-1 38-636, –A: nothing between Asp152 and Asp193 | R451C, biotin on the Avitag (in vivo biotinylation by BirA)).
Assay [4] deals with T3, human NL1(–A–B)_(ECTO), biotinylated and immobilised for SPR (human, biotin on the Avitag (in vivo biotinylation by BirA)).
T3 chain: T2 chain with C379R

Sequence of human NL3(–A)_(ECTO) Arg451Cys, immobilised for SPR (Q9NZ94 other isoform, or with tags, fused parts or gaps –A: nothing between Asp152 and Asp193 | R451C | R451C): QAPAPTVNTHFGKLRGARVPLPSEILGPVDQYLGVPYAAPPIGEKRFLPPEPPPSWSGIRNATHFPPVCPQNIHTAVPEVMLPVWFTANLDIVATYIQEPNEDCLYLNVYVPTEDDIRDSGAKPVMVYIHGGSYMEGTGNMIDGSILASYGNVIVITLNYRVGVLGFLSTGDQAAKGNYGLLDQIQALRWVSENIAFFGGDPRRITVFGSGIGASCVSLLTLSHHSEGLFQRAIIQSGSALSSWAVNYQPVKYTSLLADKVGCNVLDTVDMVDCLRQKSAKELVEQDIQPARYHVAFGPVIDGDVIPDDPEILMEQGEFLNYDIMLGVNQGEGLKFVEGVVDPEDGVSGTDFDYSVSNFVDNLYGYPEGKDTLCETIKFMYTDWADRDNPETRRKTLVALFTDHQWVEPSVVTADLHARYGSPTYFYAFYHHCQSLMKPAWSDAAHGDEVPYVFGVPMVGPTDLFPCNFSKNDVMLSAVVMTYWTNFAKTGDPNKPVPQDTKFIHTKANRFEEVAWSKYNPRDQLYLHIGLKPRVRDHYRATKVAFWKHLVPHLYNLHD

B1: human β-neurexin-1 LNS6 domain lacking SS4 (β-NRX1_(LNS6)(–4); His85-Val265) (domain or fragment)
chain: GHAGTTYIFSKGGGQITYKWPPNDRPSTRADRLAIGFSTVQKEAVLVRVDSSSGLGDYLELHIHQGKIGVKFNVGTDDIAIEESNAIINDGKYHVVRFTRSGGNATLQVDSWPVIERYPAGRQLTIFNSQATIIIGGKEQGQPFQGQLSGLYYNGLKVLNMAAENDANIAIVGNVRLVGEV
With B1, the Kd in assay [1] amounted to 1.09 µM; in assay [2], 0.76 µM; in assay [3], 10.8 µM.

B2: human MDGA1 extracellular domain (MDGA1_(ECTO); Gln19-Lys925) (domain or fragment)
chain: QGVYAPAQAQIVHAGQACVVKEDNISERVYTIREGDTLMLQCLVTGHPRPQVRWTKTAGSASDKFQETSVFNETLRIERIARTQGGRYYCKAENGVGVPAIKSIRVDVQYLDEPMLTVHQTVSDVRGNFYQEKTVFLRCTVNSNPPARFIWKRGSDTLSHSQDNGVDIYEPLYTQGETKVLKLKNLRPQDYASYTCQVSVRNVCGIPDKAITFRLTNTTAPPALKLSVNETLVVNPGENVTVQCLLTGGDPLPQLQWSHGPGPLPLGALAQGGTLSIPSVQARDSGYYNCTATNNVGNPAKKTVNLLVRSMKNATFQITPDVIKESENIQLGQDLKLSCHVDAVPQEKVTYQWFKNGKPARMSKRLLVTRNDPELPAVTSSLELIDLHFSDYGTYLCMASFPGAPVPDLSVEVNISSETVPPTISVPKGRAVVTVREGSPAELQCEVRGKPRPPVLWSRVDKEAALLPSGLPLEETPDGKLRLERVSRDMSGTYRCQTARYNGFNVRPREAQVQLNVQFPPEVEPSSQDVRQALGRPVLLRCSLLRGSPQRIASAVWRFKGQLLPPPPVVPAAAEAPDHAELRLDAVTRDSSGSYECSVSNDVGSAACLFQVSAKAYSPEFYFDTPNPTRSHKLSKNYSYVLQWTQREPDAVDPVLNYRLSIRQLNQHNAVVKAIPVRRVEKGQLLEYILTDLRVPHSYEVRLTPYTTFGAGDMASRIIHYTEPINSPNLSDNTCHFEDEKICGYTQDLTDNFDWTRQNALTQNPKRSPNTGPPTDISGTPEGYYMFIETSRPRELGDRARLVSPLYNASAKFYCVSFFYHMYGKHIGSLNLLVRSRNKGALDTHAWSLSGNKGNVWQQAHVPISPSGPFQIIFEGVRGPGYLGDIAIDDVTLKKGECPRKQTDPNK
On to B2, for which the results for the Kd in assay [1] and in assay [4] were 7.22 µM and 1.72 µM, respectively.

B3: human β-neurexin-1 LNS6 domain with SS4 (β-NRX1_(LNS6)(+4)) (domain or fragment)
chain: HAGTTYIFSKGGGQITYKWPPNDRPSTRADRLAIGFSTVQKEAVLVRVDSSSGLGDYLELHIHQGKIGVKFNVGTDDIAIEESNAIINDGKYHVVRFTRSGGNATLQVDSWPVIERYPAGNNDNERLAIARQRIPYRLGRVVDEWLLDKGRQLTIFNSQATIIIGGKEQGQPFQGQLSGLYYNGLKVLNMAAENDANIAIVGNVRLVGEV
As to B3, the Kd in assay [1] was determined as 4.4 µM; in assay [2] it was 2.7 µM; in assay [3], 47.9 µM; in assay [4], 2.59 µM.

B4: human MDGA2 extracellular domain (MDGA2_(ECTO); Gln21-Lys927) (domain or fragment)
chain: QGVYAPPTVRIVHSGLACNIEEERYSERVYTIREGETLELTCLVTGHPRPQIRWTKTAGSASDRFQDSSVFNETLRITNIQRHQGGRYYCKAENGLGSPAIKSIRVDVYYLDDPVVTVHQSIGEAKEQFYYERTVFLRCVANSNPPVRYSWRRGQEVLLQGSDKGVEIYEPFFTQGETKILKLKNLRPQDYANYSCIASVRNVCNIPDKMVSFRLSNKTASPSIKLLVDDPIVVNPGEAITLVCVTTGGEPAPSLTWVRSFGTLPEKTVLNGGTLTIPAITSDDAGTYSCIANNNVGNPAKKSTNIIVRALKKGRFWITPDPYHKDDNIQIGREVKISCQVEAVPSEELTFSWFKNGRPLRSSERMVITQTDPDVSPGTTNLDIIDLKFTDFGTYTCVASLKGGGISDISIDVNISSSTVPPNLTVPQEKSPLVTREGDTIELQCQVTGKPKPIILWSRADKEVAMPDGSMQMESYDGTLRIVNVSREMSGMYRCQTSQYNGFNVKPREALVQLIVQYPPAVEPAFLEIRQGQDRSVTMSCRVLRAYPIRVLTYEWRLGNKLLRTGQFDSQEYTEYAVKSLSNENYGVYNCSIINEAGAGRCSFLVTGKAYAPEFYYDTYNPVWQNRHRVYSYSLQWTQMNPDAVDRIVAYRLGIRQAGQQRWWEQEIKINGNIQKGELITYNLTELIKPEAYEVRLTPLTKFGEGDSTIRVIKYSAPVNPHLREFHCGFEDGNICLFTQDDTDNFDWTKQSTATRNTKYTPNTGPNADRSGSKEGFYMYIETSRPRLEGEKARLLSPVFSIAPKNPYGPTNTAYCFSFFYHMYGQHIGVLNVYLRLKGQTTIENPLWSSSGNKGQRWNEAHVNIYPITSFQLIFEGIRGPGIEGDIAIDDVSIAEGECAKQDLATK
As to B4, in assay [1], the Kd is 4.03 µM.
